{"source": "patent US11999794B2", "about": "“Human mesothelin chimeric antigen receptors and uses thereof” (Novartis AG, priority 2013, dated 2024)", "molecules": {"B1": {"name": "M5: human anti-mesothelin scFv SEQ ID NO: 43; full CAR SEQ ID NO: 67 (protein)", "scFv": "QVQLVQSGAEVEKPGASVKVSCKASGYTFTDYYMHWVRQAPGQGLEWMGWINPNSGGTNYAQKFQGRVTMTRDTSISTAYMELSRLRSDDTAVYYCASGWDFDYWGQGTLVTVSSGGGGSGGGGSGGGGSGGGGSDIVMTQSPSSLSASVGDRVTITCRASQSIRYYLSWYQQKPGKAPKLLIYTASILQNGVPSRFSGSGSGTDFTLTISSLQPEDFATYYCLQTYTTPDFGPGTKVEIK"}, "B2": {"name": "M11: human anti-mesothelin scFv SEQ ID NO: 49; full CAR SEQ ID NO: 73 (protein)", "scFv": "B1 scFv with V5Q, E12K, D31G, K63N, S84R, V138R"}}, "key": {"[1]": {"assay": "RAD001 levels in blood (trough)"}, "Ovcar3": {"tested_on": "Ovcar3", "assay": "Luciferase-based killing assay", "type": "cell-based, human", "conditions": "for killing of target tumor cells: E:T 10:1 to 1:1, 20 hours, FIG. 16A; for specific killing within the panel of human meso CARs: FIGS. 17A and 17B", "description": "The ability for the CART-MSLN to target and kill tumor cells was also assessed in vitro. A luciferase-based assay was used, with tumor cell lines expressing luciferase reporters. Target cells (tumor cells) were plated at 20,000 targets/well. CART-MSLN were added at varying effector:target ratios, from 10:1, 5:1, 2.5:1, and 1:1. The cells were cultured for 20 hours, and the luminescence of each well was detected to determine the percentage of target cells killed. Luciferase-expressing Ovcar3 (ovarian cancer) and U87 mg (glioblastoma) cell lines were used as target cells."}, "[2]": {"target": "T1, biotinylated mesothelin ECD (Homo sapiens, UniProt Q13421)", "T1 construct": "made in house; host or cells: HEK293F (transient)", "T1 sequence (Q13421 with tags, fused parts or gaps)": "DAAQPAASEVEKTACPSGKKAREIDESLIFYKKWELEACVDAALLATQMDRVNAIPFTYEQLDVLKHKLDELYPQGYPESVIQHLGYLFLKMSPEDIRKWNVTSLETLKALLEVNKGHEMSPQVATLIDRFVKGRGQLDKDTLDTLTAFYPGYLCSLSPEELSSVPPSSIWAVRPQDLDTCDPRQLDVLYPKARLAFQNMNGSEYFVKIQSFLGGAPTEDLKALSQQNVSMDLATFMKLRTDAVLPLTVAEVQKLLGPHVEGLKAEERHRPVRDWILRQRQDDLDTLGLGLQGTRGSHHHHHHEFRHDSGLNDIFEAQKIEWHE", "assay": "Surface plasmon resonance (Biacore T200) binding affinity of purified scFvs", "conditions": "for Kd: 1:1 Binding or Steady State Affinity fit", "description": "Binding affinity of purified scFvs was measured on a Biacore T200 system. Briefly, recombinant human biotinylated mesothelin ECD was immobilized on a streptavidin (SA) sensor chip surface at a density of 150 RU. Purified scFv was injected over the chip under constant flow rate at three-fold serial dilutions. Association and dissociation rates of the protein complex were monitored for 270 seconds and 400 seconds, respectively. Double referencing was performed against a blank immobilized flow cell and a buffer blank. Affinity was determined with a Langmuir 1:1 binding model when possible, for those scFVs where accurate fitting was not possible due to fast on and off rates, the steady state model was used."}, "[3]": {"tested_on": "Ovcar8, SW1990 and Panc0203", "assay": "IFNγ production of CART-MSLN (CBA-Flex), endogenous MSLN", "type": "cell-based, human", "conditions": "for IFNγ levels compared with the other CARTs: cancer cells endogenously expressing MSLN", "description": "Plots from 20 hour flow-based killing assays using titrating Effector to Target (E:T) ratios with effector CART-MSLN cells targeting CSFE labeled K562 (FIG. 3A. non-expressing MSLN controls) and K562-Meso (FIG. 3B, K562 cells transduced to express MSLN). […] For measuring cytokine production of human scFv bearing CART-MSLN, cells were thawed and allowed to recover overnight. In addition to the humanized CART-MSLN, the SS1 CART-MSLN (murine scFv) was used for comparative purposes. CD19-BBz CART was used as a non-targeting control for background CART cell effect. SS1 CART-MSLN was used in all assays to compare assay variation. The T cells were directed towards K562, a chronic myelogenous leukemia cell line (both MSLN+ and MSLN), the MLSN-expressing ovarian cancer cell line Ovcar8, and the pancreatic cancer lines SW1990 and Panc0203. When analyzing MSLN expression by flow cytometry, we detected 10-fold lower expression of MSLN on Ovcar8 compared to MSLN+K562 cells; SW1990 expressed 10-fold less than Ovcar8. […] In addition, PMA/Ionomycin was used to evaluate the potential of T cells to respond to the endogenous immunological signals. The assay tests only an effector:target ratio of 1:1. The assay is run for 24 hours after mixing of the cells, when the media is removed for cytokine analysis using the IFN-γ CBA-Flex kit for human cytokine detection.\nBackground levels of cytokine produced from CART-MSLN cells after exposure to the control K562 cells not expressing MSLN were analyzed. […] Differences were dealt with by normalizing the specific IFNγ release over the maximum release (PMA/Ionomycin)."}, "Ovcar8": {"tested_on": "Ovcar8", "assay": "Ovcar8 xenograft model (Example 8)", "type": "in vivo, NSG mice", "conditions": "2×10^6 CART cells i.v. at day 14", "description": "Anti-tumor activity of CART-MSLN was assessed in vivo in an Ovcar8 xenograft model. 10×10^6 Ovcar8 cells were implanted subcutaneously on day 0 in NSG mice. At day 14, 2×10^6 CART cells (CARTs expressing M5, M11, M17, M21, SS1, and CD19, or untransduced cells; 10×10^6 total T cells) in a 100 μl dose was administered intravenously. Mice and tumors were monitored for about 40 days after tumor cell implantation.\nA second in vivo xenograft experiment was performed to assess the anti-tumor activity of a second set of CART-MSLN cells. 10×10^6 OVCAR8-mcherry cells were injected into NSG mice. Once tumors were 150-250 mm^2, mice were randomized into treatment groups. CARTs expressing M12, M14, M16, M23, ss1, CD19, or untreated cells were injected at a dose of 10×10^6 T cells in 100 μl. About 40% of T cells were expressing CAR, and therefore at the administered dosage, about 4×10^6 CART cells were delivered to each animal."}}, "note": "Positions count from the first letter of the chain named."}
{"molecule": "CO[C@H]1C[C@@H]2CC[C@@H](C)[C@@](O)(O2)C(=O)C(=O)N2CCCC[C@H]2C(=O)O[C@H]([C@H](C)C[C@@H]2CC[C@@H](OCCO)[C@H](OC)C2)CC(=O)[C@H](C)/C=C(\\C)[C@@H](O)[C@@H](OC)C(=O)[C@H](C)C[C@H](C)/C=C/C=C/C=C/1C", "note": "[RAD001, (1R,9S,12S,15R,16E,18R,19R,21R,23 S,24E,26E,28E,30S,32S,35R)-1,18-dihydroxy-12-{(1R)-2-[(1 S,3R,4R)-4-(2-hydroxyethoxy)-3-methoxycyclohexyl]-1-methylethyl}-19,30-dimethoxy-15,17,21,23,29,35-hexamethyl-11,36-dioxa-4-aza-tricyclo[30.3.1.04,9]hexatriaconta-16,24,26,28-tetraene-2,3,10,14,20-pentaone]", "values": [{"measurement": "average trough level", "setting": "[1]; 0.5 mg daily", "result": 0.9, "unit": "ng/mL"}, {"measurement": "average trough level", "setting": "[1]; 5 mg weekly", "result": "below detection limits"}, {"measurement": "average trough level", "setting": "[1]; 20 mg weekly", "result": 0.7, "unit": "ng/mL"}, {"measurement": "trough level of study regimens relative to approved regimens", "setting": "[1]; in vivo", "result": "3-20 fold lower"}]}
{"molecule": "B1", "values": [{"measurement": "killing of target tumor cells", "setting": "Ovcar3", "result": "performed similarly well in killing target tumor cells"}, {"measurement": "specific killing within the panel of human meso CARs", "setting": "Ovcar3", "result": "highest specific killing of Ovcar3 cells"}, {"measurement": "ka", "setting": "[2]; 1:1 Binding fit", "result": 42000, "unit": "M⁻¹ s⁻¹"}, {"measurement": "kd", "setting": "[2]; 1:1 Binding fit", "result": 0.00113, "unit": "s⁻¹"}, {"measurement": "Kd", "setting": "[2]", "result": 26.9, "unit": "nM"}, {"measurement": "IFNγ response to cancer cells endogenously expressing MSLN", "setting": "[3]; E:T 1:1, 24 hours", "result": "responded"}, {"measurement": "IFNγ levels compared with the other CARTs", "setting": "[3]", "result": "superior IFNγ levels"}, {"measurement": "anti-tumor activity, first xenograft experiment", "setting": "Ovcar8", "result": "strong anti-tumor activity"}]}
{"molecule": "B2", "values": [{"measurement": "killing of target tumor cells", "setting": "Ovcar3", "result": "performed similarly well in killing target tumor cells"}, {"measurement": "specific killing within the panel of human meso CARs", "setting": "Ovcar3", "result": "highest specific killing of Ovcar3 cells"}, {"measurement": "Kd", "setting": "[2]", "result": 64.7, "unit": "nM"}, {"measurement": "IFNγ levels compared with the other CARTs", "setting": "[3]", "result": "superior IFNγ levels"}, {"measurement": "anti-tumor activity, first xenograft experiment", "setting": "Ovcar8", "result": "strong anti-tumor activity"}]}
